US20100260668A1 (published 2010)
“And” between values parts separate entries of the source, which are not always exact repeats. Equal values may be shown once.

Columns and labels:
[1] = target: T1, ErbB3 on A431 cells (human, UniProt P21860 20-1342); assay: cell-based or functional assay
[2] = target: T1, ErbB3 on A431 cells; assay: cell-based or functional assay; remark: listed apart in the source
[3] = target: T2, IGF1R ECD (UniProt P08069 31-935, limits assumed); assay: Biacore SPR
T2 construct: extracellular domain; Bought reagent

[4] = target: T3, IGF-I (UniProt P05019 49-118); assay: Biacore SPR
T3 construct: Bought reagent; also called IGF1

[5] = target: T4, IGF-2 (UniProt P01344 25-91); assay: Biacore SPR
T4 construct: Bought reagent

[6] = target: T5, HGF (UniProt P14210 32-728); assay: SPR (Biacore); parent antibody
[7] = target: T5, HGF; assay: SPR (Biacore); C-terminal VD
[8] = target: NRP1 (Neuropilin-1 Npn-1-His tag) (UniProt O14786-2 22-644); assay: SPR (Biacore); parent antibody
[9] = target: T6, PlGF (Placental GF) (UniProt P49763-2 21-149, limits assumed); assay: SPR (Biacore); parent antibody
T6 sequence (looked up): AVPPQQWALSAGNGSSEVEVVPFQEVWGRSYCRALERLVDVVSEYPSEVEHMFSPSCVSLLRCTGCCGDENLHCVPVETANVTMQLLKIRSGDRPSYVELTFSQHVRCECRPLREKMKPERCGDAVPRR

[10] = target: T7, recombinant human HGF (human, UniProt P14210 32-728); assay: competition ELISA: DVD-Ig co-incubated with 2 nM soluble c-Met Fc on coated HGF (competitor c-Met Fc)
T7 construct: The target there is entered as this HGF; also called hepatocyte growth factor

[11] = target: T8, DLL4 (DLL4 ECD/His tag, R&D Systems 1506-D4-050) (UniProt Q9NR61 27-529); assay: Direct bind ELISA on DLL4; DLL4 domain C-term., HC short, LC long
T8 construct: extracellular domain; not shown: His tag

T5 sequence (P14210 32-728 limits assumed): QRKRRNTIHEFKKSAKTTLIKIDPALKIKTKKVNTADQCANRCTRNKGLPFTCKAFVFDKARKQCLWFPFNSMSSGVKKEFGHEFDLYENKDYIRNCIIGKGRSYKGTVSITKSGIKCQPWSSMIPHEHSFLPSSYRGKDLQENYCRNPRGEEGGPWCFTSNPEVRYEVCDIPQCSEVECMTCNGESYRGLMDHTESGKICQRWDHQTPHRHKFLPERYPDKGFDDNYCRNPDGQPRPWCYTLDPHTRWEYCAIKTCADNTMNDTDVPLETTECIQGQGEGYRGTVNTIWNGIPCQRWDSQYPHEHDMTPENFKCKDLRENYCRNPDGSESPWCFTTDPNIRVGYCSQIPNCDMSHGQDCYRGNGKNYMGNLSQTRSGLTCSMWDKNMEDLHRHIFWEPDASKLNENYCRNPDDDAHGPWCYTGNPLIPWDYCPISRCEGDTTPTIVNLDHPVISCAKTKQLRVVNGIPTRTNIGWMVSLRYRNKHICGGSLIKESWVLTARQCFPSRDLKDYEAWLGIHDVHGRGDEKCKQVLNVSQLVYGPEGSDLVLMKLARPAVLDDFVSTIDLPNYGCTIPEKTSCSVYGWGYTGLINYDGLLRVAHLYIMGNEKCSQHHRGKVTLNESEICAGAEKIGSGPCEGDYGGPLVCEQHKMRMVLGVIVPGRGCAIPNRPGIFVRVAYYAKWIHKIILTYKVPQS
T7 sequence (P14210 32-728 limits assumed): as above

B1: AB062 (anti-ErbB3 (seq. 1) parent antibody) (antibody, human IgG1, kappa, V domains shown)
VH: QVQLQQWGAGLLKPSETLSLTCAVYGGSFSGYYWSWIRQPPGKGLEWIGEINHSGSTNYNPSLKSRVTISVETSKNQFSLKLSSVTAADTAVYYCARDKWTWYFDLWGRGTLVTVSS
VL: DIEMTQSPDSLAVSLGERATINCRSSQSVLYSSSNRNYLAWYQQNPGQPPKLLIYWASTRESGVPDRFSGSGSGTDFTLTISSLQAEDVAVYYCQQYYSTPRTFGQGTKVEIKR
For B1, the “Inhibition Of EGFR Phosphorylation (% Inhibition At 60 nM Ab/DVD)” value [1] was 0%, the “Inhibition Of ErbB3 Phosphorylation (% Inhibition At 60 nM Ab/DVD)” value [1] was 72% and the “Inhibition Of A431 Proliferation (% Inhibition At 2.4 nM Ab/DVD)” value [2] was 14%. For the same binder, the “Inhibition Of A431 Proliferation (% Inhibition At 21.6 nM Ab/DVD)” value [2] was 27%.

B2: AB011 (antibody, human IgG1, kappa, V domains shown)
VH: EVQLLESGGGLVQPGGSLRLSCTASGFTFSSYAMNWVRQAPGKGLEWVSAISGSGGTTFYADSVKGRFTISRDNSRTTLYLQMNSLRAEDTAVYYCAKDLGWSDSYYYYYGMDVWGQGTTVTVSS
VL: DIQMTQFPSSLSASVGDRVTITCRASQGIRNDLGWYQQKPGKAPKRLIYAASRLHRGVPSRFSGSGSGTEFTLTISSLQPEDFATYYCLQHNSYPCSFGQGTKLEIKR
Work on B2 yielded a Kd [3] of 0.848 nM, a koff [3] of 6.21e-05 s⁻¹ and a kon [3] of 73200 M⁻¹ s⁻¹.

B3: AB010 (antibody, human IgG1, lambda, V domains shown)
VH: QVQLVQSGAEVKKPGASVKVSCKASGYTFTSYDINWVRQATGQGLEWMGWMNPNSGNTGYAQKFQGRVTMTRNTSISTAYMELSSLRSEDTAVYYCARDPYYYYYGMDVWGQGTTVTVSS
VL: QSVLTQPPSVSAAPGQKVTISCSGSSSNIENNHVSWYQQLPGTAPKLLIYDNNKRPSGIPDRFSGSKSGTSATLGITGLQTGDEADYYCETWDTSLSAGRVFGGGTKLTVLG
notes: also called anti-IGF1,2 parent antibody
With B3 the Kd [4] was 0.388 nM, the koff [4] was 0.00123 s⁻¹ and the kon [4] was 3.17e+06 M⁻¹ s⁻¹. The Kd [5] was 0.423 pM and < 0.299 pM, the koff [5] was 2.74e-06 s⁻¹ and < 1e-06 s⁻¹ and the kon [5] was 6.47e+06 M⁻¹ s⁻¹ and 3.35e+06 M⁻¹ s⁻¹.

B4: AB012 (antibody, human IgG1, kappa, V domains shown)
VH: QVQLVESGGGLVKPGGSLRLSCAASGFTFSDYYMSWIRQAPGKGLEWVSYISSSGSTIYYADSVKGRFTISRDNAKNSLYLQMNSLRAEDTAVYYCARDEYNSGWYVLFDYWGQGTLVTVSS
VL: DIQMTQSPSSVSASVGDRVTITCRASQGISSWLAWYQQKPGKAPNLLIYEASSLQSGVPSRFGGSGSGTDFTLTISSLQPEDFATYYCQQANGFPWTFGQGTKVEIKR
notes: also called AB012VH; AB012VL
Binder B4 has a Kd [6] of under 0.0284 nM, a koff [6] of 0.000284 s⁻¹ and a kon [6] of over 1e+07 M⁻¹ s⁻¹.

B5: DVD045 (bispecific antibody, human IgG1, kappa)
heavy: not shown
light: DIQMTQSPSSLSASVGDRVTITCSASQDISNYLNWYQQKPGKAPKVLIYFTSSLHSGVPSRFSGSGSGTDFTLTISSLQPEDFATYYCQQYSTVPWTFGQGTKVEIKRTVAAPDIQMTQSPSSVSASVGDRVTITCRASQGISSWLAWYQQKPGKAPNLLIYEASSLQSGVPSRFGGSGSGTDFTLTISSLQPEDFATYYCQQANGFPWTFGQGTKVEIKRTVAAPSVFIFPPSDEQLKSGTASVVCLLNNFYPREAKVQWKVDNALQSGNSQESVTEQDSKDSTYSLSSTLTLSKADYEKHKVYACEVTHQGLSSPVTKSFNRGEC
notes: N-terminal VD VEGF, C-terminal VD HGF; also called DVD045H; DVD045L
For B5, the Kd [7] was 0.901 nM, the koff [7] was 0.000166 s⁻¹ and the kon [7] was 184000 M⁻¹ s⁻¹.

B6: AB016 (antibody, human IgG1, kappa, V domains shown)
VH: EVQLVESGGGLVQPGGSLRLSCAASGFSFSSEPISWVRQAPGKGLEWVSSITGKNGYTYYADSVKGRFTISADTSKNTAYLQMNSLRAEDTAVYYCARWGKKVYGMDVWGQGTLVTVSS
VL: DIQMTQSPSSLSASVGDRVTITCRASQSISSYLAWYQQKPGKAPKLLIYGASSRASGVPSRFSGSGSGTDFTLTISSLQPEDFATYYCQQYMSVPITFGQGTKVEIKR
notes: also called AB016VH; AB016VL
B6 gave a Kd [8] of 2.67 nM, a koff [8] of 0.00039 s⁻¹ and a kon [8] of 147000 M⁻¹ s⁻¹.

B7: AB047 (antibody, human IgG1, kappa, V domains shown)
VH: QVQLQQSGAELVKPGASVKISCKASGYTFTDYYINWVKLAPGQGLEWIGWIYPGSGNTKYNEKFKGKATLTIDTSSSTAYMQLSSLTSEDTAVYFCVRDSPFFDYWGQGTLLTVSS
VL: DIVLTQSPDSLAVSLGERVTMNCKSSQSLLNSGMRKSFLAWYQQKPGQSPKLLIYWASTRESGVPDRFTGSGSGTDFTLTISSVQAEDVAVYYCKQSYHLFTFGSGTKLEIKR
notes: also called AB047VH; AB047VL
B7 was tested, and the Kd [9] was 0.0285 nM, the koff [9] was 0.000108 s⁻¹ and the kon [9] was 3.8e+06 M⁻¹ s⁻¹.

B8: DVD045 (VEGF (seq. 1) N-terminal / HGF (seq. 1) C-terminal DVD-Ig, linker set 1) (bispecific antibody, human IgG1, kappa)
heavy: not shown
light: B5 light
notes: also called DVD045H/DVD045L
Binder B8 has an IC50 [10] of over 100 nM.

B9: DVD033 (RON (seq. 1) N-terminal / HGF (seq. 1) C-terminal DVD-Ig) (bispecific antibody, human IgG1, kappa)
heavy: not shown
light: DVVMTQSPLSLPVTPGEPASISCRSSQSLLHSNGFNYVDWYLQKPGQSPHLLIYFGSYRASGVPDRFSGSGSGTDFTLKISRVEAEDVGVYYCMQALQTPPWTFGQGTKVEIRRTVAAPDIQMTQSPSSVSASVGDRVTITCRASQGISSWLAWYQQKPGKAPNLLIYEASSLQSGVPSRFGGSGSGTDFTLTISSLQPEDFATYYCQQANGFPWTFGQGTKVEIKRTVAAPSVFIFPPSDEQLKSGTASVVCLLNNFYPREAKVQWKVDNALQSGNSQESVTEQDSKDSTYSLSSTLTLSKADYEKHKVYACEVTHQGLSSPVTKSFNRGEC
notes: also called DVD033H/DVD033L
B9 showed an IC50 [10] of 8.7 nM.

B10: DVD484 (VEGF/DLL4 DVD-Ig) (bispecific antibody, human IgG1)
VH: EVQLVESGGGLVQPGGSLRLSCAASGFTISDYWIHWVRQAPGKGLEWVAGITPAGGYTYYADSVKGRFTISADTSKNTAYLQMNSLRAEDTAVYYCARFVFFLPYAMDYWGQGTLVTVSSASTKGPEVQLVESGGGLVQPGGSLRLSCAASGFTFTDNWISWVRQAPGKGLEWVGYISPNSGFTYYADSVKGRFTISADTSKNTAYLQMNSLRAEDTAVYYCARDNFGGYFDYWGQGTLVTVSS
VL: DIQMTQSPSSLSASVGDRVTITCRASQDVSTAVAWYQQKPGKAPKLLIYSASFLYSGVPSRFSGSGSGTDFTLTISSLQPEDFATYYCQQSYTTPPTFGQGTKVEIKRTVAAPSVFIFPPDIQMTQSPSSLSASVGDRVTITCRASQDVSTAVAWYQQKPGKAPKLLIYSASFLYSGVPSRFSGSGSGTDFTLTISSLQPEDFATTYYCQQSYTGTVTFGQGTKVEIKR
notes: HC linker short, LC linker long; also called DVD484H; DVD484L
Binder B10 has an EC50 [11] of 1.75 nM.

B11: DVD462 (VEGF/DLL4 DVD-Ig) (bispecific antibody, human IgG1)
VH: EVQLVESGGGLVQPGGSLRLSCAASGFTISDYWIHWVRQAPGKGLEWVAGITPAGGYTYYADSVKGRFTISADTSKNTAYLQMNSLRAEDTAVYYCARFVFFLPYAMDYWGQGTLVTVSSASTKGPQVQLVQSGAEVKKPGASVKISCKASGYSFTAYYIHWVKQAPGQGLEWIGYISSYNGATNYNQKFKGRVTFTTDTSTSTAYMELRSLRSDDTAVYYCARDYDYDVGMDYWGQGTLVTVSS
VL: DIQMTQSPSSLSASVGDRVTITCRASQDVSTAVAWYQQKPGKAPKLLIYSASFLYSGVPSRFSGSGSGTDFTLTISSLQPEDFATYYCQQSYTTPPTFGQGTKVEIKRTVAAPSVFIFPPDIVMTQSPDSLAVSLGERATISCRASESVDNYGISFMKWFQQKPGQPPKLLIYAASNQGSGVPDRFSGSGSGTDFTLTISSLQAEDVAVYYCQQSKEVPWTFGGGTKVEIKR
notes: HC linker short, LC linker long; also called DVD462H; DVD462L
B11 was tested, and the EC50 [11] was 7.99 nM.

B12: DVD532 (VEGF/DLL4 DVD-Ig) (bispecific antibody, human IgG1)
VH: EVQLVESGGGLVQPGGSLRLSCAASGFTISDYWIHWVRQAPGKGLEWVAGITPAGGYTYYADSVKGRFTISADTSKNTAYLQMNSLRAEDTAVYYCARFVFFLPYAMDYWGQGTLVTVSSASTKGPEVQLQQSGPELEKPGASVKISCKASGYSFTGYNMNWVKQSNGKSLEWIGNIDPYFGGTNYNQKFKGKATLTVDKSSSTAYMQLKSLTSEDSAVYYCARNYDYDGGCFDYWGQGTTLTVSS
VL: DIQMTQSPSSLSASVGDRVTITCRASQDVSTAVAWYQQKPGKAPKLLIYSASFLYSGVPSRFSGSGSGTDFTLTISSLQPEDFATYYCQQSYTTPPTFGQGTKVEIKRTVAAPSVFIFPPQAVVTQESALTTSPGETVTLTCRSSTGAVTTSNYANWVQEKPDHLFTGLIGGTNNRAPGVPARFSGSLIGDKAALTITGAQTEDEAIYFCALWYSNHWVFGGGTKLTVLG
notes: HC linker short, LC linker long; also called DVD532H; DVD532L
B12 was tested, and the EC50 [11] was 1.43 nM.

B13: DVD508 (VEGF/DLL4 DVD-Ig) (bispecific antibody, human IgG1)
VH: EVQLVESGGGLVQPGGSLRLSCAASGFTISDYWIHWVRQAPGKGLEWVAGITPAGGYTYYADSVKGRFTISADTSKNTAYLQMNSLRAEDTAVYYCARFVFFLPYAMDYWGQGTLVTVSSASTKGPEVQLQQSGPELVKPGASVKMSCKASGYTFTSYVINWVKQKPGQGLEWIGLINPYNDGTKYNEKFKVKATLTSDKSSSTAYMELSSLTSEDSAVYYCASYYYGSRYYFDYWGQGTTLTVSS
VL: DIQMTQSPSSLSASVGDRVTITCRASQDVSTAVAWYQQKPGKAPKLLIYSASFLYSGVPSRFSGSGSGTDFTLTISSLQPEDFATYYCQQSYTTPPTFGQGTKVEIKRTVAAPSVFIFPPDIQMTQSSSYLSVSLGGRVTITCKASDHINNWLAWYQQKPGNAPRLLISGATSLETGVPSRFSGSGSGKDYTLSITSLQTEDVATYYCQQYWSIPLTFGAGTKLELKR
notes: HC linker short, LC linker long; also called DVD508H; DVD508L
B13 gave an EC50 [11] of 0.61 nM.
